In patent US20170226172A1 (NEW YORK UNIVERSITY, published 2017):
Where two headings read alike, the source gives them in different places.

Tests used:
[1] = target: T1, alpha-Klotho with endogenous FGFRs on HEK293-alphaKlotho cells; assay: FACS competition on HEK293-alphaKlotho cells: peptide 0.01 to about 1000 nM against 0.2 ug/mL full-length human FGF23, geo mean of PE intensity
[2] = target: T2, FGFR1c/alpha-klotho on BaF3 cells (Example 12) (Homo sapiens (Human), UniProt P11362 22-822; Q9UEF7 34-1012); assay: FACS competitive binding on BaF3 cells expressing FGFR1c and Klotho, against 0.2 ug/mL FGF-23; drug 0 to 2430 nM; the number stands beside the legend entry under the title 'FACS CO… BINDING IC50', the unit is that of the axis (nM DRUG)
T2 construct: also called BaF3 cells expressing FGFR1c and αklotho; BAF3 lines engineered to express FGFR1c/αklotho

[3] = target: T1, alpha-Klotho with endogenous FGFRs on …; assay: FACS competition on HEK293-alphaKlotho cells against a sub-saturating dose of FGF23
From the text: IC50 values were derived from the resulting inhibition binding curves (FIG. 7).

[4] = target: FGFR1c and alpha-klotho, human, on BAF3 cells (Example 7) (human, UniProt P11362 22-822; Q9UEF7 34-1012); assay: cell-based or functional assay
[5] = target: T1, alpha-Klotho with endogenous FGFRs on …; assay: cell-based or functional assay
[6] = target: T1, alpha-Klotho with endogenous FGFRs on …; assay: FACS competition on HEK293-alphaKlotho cells: peptide 0.01 to about 1000 nM against 0.2 ug/mL full-length human FGF23, geo mean of PE intensity; remark: listed apart in the source
[7] = target: T3, FGFR4/alpha-klotho on BaF3 cells (Example 12) (Homo sapiens (Human), UniProt P22455 22-802; Q9UEF7 34-1012); assay: FACS competitive binding on BaF3 cells expressing FGFR4 and Klotho, against 0.2 ug/mL FGF-23; drug 0 to 2430 nM; the number stands beside the legend entry under the title 'FACS CO… BINDING IC50', the unit is that of the axis (nM DRUG)
T3 construct: also called BaF3 cells expressing FGFR4 and αklotho; BaF3-FGFR4/αklotho cells

[8] = target: T4, FGFR1c/alpha-klotho receptor complex, murine, pre-formed (SPR analyte) (mouse, UniProt P16092 22-376; O35082 35-982); assay: SPR competition; full-length murine FGF23 on the Biacore chip, set amount of pre-formed receptor complex with increasing c-tail construct
T4 construct: also called pre-formed receptor complex (mouse)
T4 sequence (looked up) 1: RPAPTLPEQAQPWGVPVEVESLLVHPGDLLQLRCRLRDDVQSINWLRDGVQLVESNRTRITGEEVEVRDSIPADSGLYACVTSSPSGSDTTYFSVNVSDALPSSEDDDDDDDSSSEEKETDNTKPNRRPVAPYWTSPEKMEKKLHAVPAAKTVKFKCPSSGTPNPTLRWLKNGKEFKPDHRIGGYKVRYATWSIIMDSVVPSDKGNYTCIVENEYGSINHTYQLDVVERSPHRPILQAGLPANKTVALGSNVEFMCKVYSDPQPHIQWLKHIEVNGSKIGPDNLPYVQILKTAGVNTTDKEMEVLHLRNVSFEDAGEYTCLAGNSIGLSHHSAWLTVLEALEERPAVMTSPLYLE
T4 sequence (looked up) 2: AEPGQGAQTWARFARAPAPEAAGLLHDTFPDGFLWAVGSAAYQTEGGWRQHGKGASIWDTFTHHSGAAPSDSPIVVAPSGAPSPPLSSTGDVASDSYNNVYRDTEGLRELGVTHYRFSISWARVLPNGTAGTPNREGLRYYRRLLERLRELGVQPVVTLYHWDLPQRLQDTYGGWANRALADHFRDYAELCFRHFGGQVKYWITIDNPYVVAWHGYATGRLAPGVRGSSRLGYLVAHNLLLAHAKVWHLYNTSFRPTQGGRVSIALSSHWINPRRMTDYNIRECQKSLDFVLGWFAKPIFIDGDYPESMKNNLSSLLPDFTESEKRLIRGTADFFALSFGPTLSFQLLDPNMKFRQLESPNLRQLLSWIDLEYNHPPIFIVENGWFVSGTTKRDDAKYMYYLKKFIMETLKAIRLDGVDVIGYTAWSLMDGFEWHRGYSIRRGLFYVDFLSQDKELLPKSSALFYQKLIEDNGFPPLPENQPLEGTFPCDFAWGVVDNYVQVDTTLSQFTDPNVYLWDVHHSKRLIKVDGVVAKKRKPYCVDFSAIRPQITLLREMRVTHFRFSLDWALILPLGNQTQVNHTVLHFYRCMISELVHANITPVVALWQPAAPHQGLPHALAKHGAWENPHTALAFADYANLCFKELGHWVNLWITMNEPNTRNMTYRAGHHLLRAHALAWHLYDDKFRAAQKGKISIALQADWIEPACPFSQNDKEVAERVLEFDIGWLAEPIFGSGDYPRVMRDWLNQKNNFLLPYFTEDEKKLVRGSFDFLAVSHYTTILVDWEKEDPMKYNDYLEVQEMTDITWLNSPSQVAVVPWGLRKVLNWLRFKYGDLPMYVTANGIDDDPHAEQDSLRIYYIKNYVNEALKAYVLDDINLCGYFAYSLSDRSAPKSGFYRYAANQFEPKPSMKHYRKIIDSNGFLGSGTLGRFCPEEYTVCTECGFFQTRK
Protocol: The potency of the human and murine constructs were determined via both competitive inhibition using SPR and cellular viability assays (Cell Titer Glo). […] Experiments were done in a species specific manner meaning that all components were from a single species, either mouse or human. For the functional experiments, BAF3 cells were engineered to stably express FGFR1c and α-klotho. BAF3 cells are dependent on IL-3 for growth. […] Once again this was done in a species specific manner.

[9] = target: FGFR1c and alpha-klotho, murine, on BAF3 cells (Example 7) (mouse, UniProt P16092 22-822; O35082 35-1014); assay: cell-based or functional assay
[10] = target: T1, alpha-Klotho with endogenous FGFRs on …; assay: FACS competition on HEK293-alphaKlotho cells: peptide 0.01 to about 1000 nM against 0.2 ug/mL full-length human FGF23, geo mean of PE intensity; remark: listed apart in the source

B1: Human FGF23 c-tail 69 (-3 amino acid construct) peptide (peptide)
peptide: SAEDDSERDPLNVLKPRARMTPAPASCSQELPSAEDNSPMASDPLGVVRGGRVNTHAGGTGPEGCRPFA
notes: also called truncated FGF23 c-tail peptide, 69 amino acids
B1 showed an IC50 [1] of 2.8 nM.

B2: Human Wild Type FGF23 c-tail Fc (FGF23-c-tail-FC1), mature (Fc fusion)
chain: EPKSCDKTHTCPPCPAPEAAGAPSVFLFPPKPKDTLMISRTPEVTCVVVDVSHEDPEVKFNWYVDGVEVHNAKTKPREEQYNSTYRVVSVLTVLHQDWLNGKEYKCKVSNKALPAPIEKTISKAKGQPREPQVYTLPPSREEMTKNQVSLTCLVKGFYPSDIAVEWESNGQPENNYKTTPPVLDSDGSFFLYSKLTVDKSRWQQGNVFSCSVMHEALHNHYTQKSLSLSPGGGGGSSAEDDSERDPLNVLKPRARMTPAPASCSQELPSAEDNSPMASDPLGVVRGGRVNTHAGGTGPEGCRPFAKFI
notes: Made in CHO cells; also called HuFGF23 c-tail Fc; huFGF23-Fc
With B2 the IC50 [2] was 20.4 nM, the “IC50 (read off the curve)” value [3] was ~10 nM and the “IC50, cellular viability (Cell Titer Glo) of BAF3 cells expressing FGFR1c and alpha-klotho kept alive by FGF23” value [4] was 53 nM. For the same binder, the “IC50, inhibition of FGF23-mediated Egr1-luciferase activity in HEK293 cells expressing alpha-klotho (after assay optimization)” value [5] was 21.5 nM and the “IC50, inhibition of FGF23-mediated Egr1-luciferase activity in HEK293 cells expressing alpha-klotho (prior to assay optimization)” value [5] was 202 nM.

B3: Wild Type Human FGF23 c-tail 180-251 (72 amino acid peptide) (peptide)
peptide: SAEDDSERDPLNVLKPRARMTPAPASCSQELPSAEDNSPMASDPLGVVRGGRVNTHAGGTGPEGCRPFAKFI
notes: also called FGF23 c-tail peptide; unconjugated FGF23 c-tail peptide
For B3, the IC50 [6] was 2.9 nM, the IC50 [2] was 15.4 nM and the IC50 [7] was 23 nM. For the same binder, the “IC50 (read off the curve)” value [3] was ~20 nM and the “IC50, inhibition of FGF23 signaling (Egr1-luciferase) in HEK293 cells expressing alpha-klotho (prior to assay optimization)” value [5] was 81.9 nM.

B4: Wild Type Murine FGF23 c-tail Fc (muFGF23-c-tail-FC1), mature (Fc fusion)
chain: VPRDAGCKPCICTVPPVSSVFIFPPKPKDVLTITLTPKVTCVVVDISKDDPEVQFSWFVDDVEVHTAQTQPREEQFNSTFRSVSELPIMHQDWLNGKAFACAVNSAAFPAPIEKTISKTKGRPKAPQVYTIPPPKEQMAKDKVSLTCMITDFFPEDITVEWQWNGQPAENYKNTQPIMDTDGSYFVYSKLNVQKSNWEAGNTFTCSVLHEGLHNHHTEKSLSHSPGGGGGSSAEDPPERDPLNVLKPRPRATPVPVSCSRELPSAEEGGPAASDPLGVLRRGRGDARGGAGGADRCRPFPRFV
notes: also called Murine FGF23-Fc; surrogate molecule
In the case of B4, the Ki [8] is reported as 10 nM and the “IC50, cellular viability (Cell Titer Glo) of BAF3 cells expressing FGFR1c and alpha-klotho kept alive by FGF23” value [9] is reported as 35 nM.

B5: Human FGF23 c-tail 70 (-2 amino acid construct) peptide (peptide)
peptide: SAEDDSERDPLNVLKPRARMTPAPASCSQELPSAEDNSPMASDPLGVVRGGRVNTHAGGTGPEGCRPFAK
notes: also called truncated FGF23 c-tail peptide, 70 amino acids
Work on B5 yielded an IC50 [10] of 2.4 nM.
